Measurements taken from patent publication US20260242735A1 (UNIVERSIT T BASEL, published 2026).

B1: Refmab #4 Fab fragment (Fab, V domains shown)
VH: QVQLVQSGAEVKKPGESVKVSCKASGYTFTNYGMNWVKQAPGQGLEWMGWINTYTGEPTYADKFQGRVTMTTDTSTSTAYMEIRNLGGDDTAVYYCARWSWSDGYYVYFDYWGQGTSVTVSS
VL: DIVMTQSPDSLTVSLGERTTINCKSSQSVLDSSTNKNSLAWYQQKPGQPPKLLLSWASTRESGIPDRFSGSGSGTDFTLTIDSPQPEDSATYYCQQSAHFPITFGQGTRLEIK
B2: Refmab #5 Fab fragment (Fab, V domains shown)
VH: QVQLVQSGAEVKKPGASVKVSCKASGYTFTNYDINWVRQAPGQGLEWIGWIYPGDGSTKYNEKFKAKATLTADTSTSTAYMELRSLRSDDTAVYYCASGYEDAMDYWGQGTTVTVSS
VL: DIQMTQSPSSLSASVGDRVTINCKASQDINSYLSWFQQKPGKAPKTLIYRANRLVDGVPSRFSGSGSGQDYTLTISSLQPEDFATYYCLQYDEFPLTFGGGTKVEIK
B3: Refmab #5 (antibody, V domains shown)
VH: B2 VH
VL: B2 VL
notes: Full-length format is human IgG1 Fc silent (PG-LALA); The alanine scan used IgG or Fab
B4: Refmab #6 (antibody, V domains shown)
VH: QVQLQQPGAEVVKPGASVKMSCKASGYTFTSYYIHWIKQTPGQGLEWVGVIYPGNDDISYNQKFQGKATLTADKSSTTAYMQLSSLTSEDSAVYYCAREVRLRYFDVWGQGTTVTVSS
VL: EIVLTQSPGSLAVSPGERVTMSCKSSQSVFFSSSQKNYLAWYQQIPGQSPRLLIYWASTRESGVPDRFTGSGSGTDFTLTISSVQPEDLAIYYCHQYLSSRTFGQGTKLEIK
notes: as for B3

Key:
human wild-type CD33 = molecular target: T1, human wild-type CD33 (human, UniProt P20138 18-364); assay: flow cytometry, Fab at 0.50 ug/ml on HEK293-T cells expressing CD33 against vector alone
T1 construct: also called SIGLEC3; P67
Description: Serial dilutions of each Fab were tested for immunoreactivity against cells expressing wild-type CD33 or vector alone. The optimal screening concentration for the Fabs was determined based on the raw signal values and signal-to-background calculations. Each point represents the mean of four replicates.

human CD33 H346A = molecular target: T2, human CD33 H346A (human, UniProt P20138 18-364); assay: alanine scan; flow cytometry, HEK293-T cells expressing the mutant; normalised to WT CD33;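 note: antibodies (IgG or Fab) at doses pre-set by titration on wild-type CD33, duplicate readings with background fluorescence subtracted, mutants made by site-directed alanine substitution (alanine changed to serine)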
T2 construct: Alanine-scan mutant clone of CD33 transiently transfected into HEK293-T cells
Description: (§1) An alanine scan on human CD33 was performed to the determine the residues on CD33 that are involved in binding to the antibodies investigated. […] Briefly, a mutation library of CD33 was created by high-throughput, site-directed mutagenesis. Each residue was individually mutated to alanine, with alanine codons mutated to serine. The mutant library was arrayed in 384-well microplates and transiently transfected into HEK293-T. Following transfection, cells were incubated with the indicated antibodies (IgG or Fab) at concentrations pre-determined using an independent immunofluorescence titration curve on wild type CD33. […] Binding of each antibody to each mutant clone was determined in duplicates. For each point, background fluorescence was subtracted from the raw data, which were then normalized to antibody reactivity with wild type CD33.
(§2) Critical residues for antibody binding (outlined in dark grey) were residues whose mutations led to a binding of the test Abs of less than 20%. Additional secondary residues (outlined in light grey) were identified that led to a binding of the test Abs of between 20 and 40% as compared to the wild type CD33.

human CD33 G347A = molecular target: T3, human CD33 G347A (human, UniProt P20138 18-364); assay: as above
T3 construct: Alanine-scan mutant clone of CD33 transiently transfected into HEK293-T cells
Description: as §1, §2

human CD33 M348A = molecular target: T4, human CD33 M348A (human, UniProt P20138 18-364); assay: as above
T4 construct: Alanine-scan mutant clone of CD33 transiently transfected into HEK293-T cells
Description: as §1, §2

human CD33 N349A = molecular target: T5, human CD33 N349A (human, UniProt P20138 18-364); assay: as above
T5 construct: Alanine-scan mutant clone of CD33 transiently transfected into HEK293-T cells
Description: as §1, §2

human CD33 P350A = molecular target: T6, human CD33 P350A (human, UniProt P20138 18-364); assay: as above
T6 construct: Alanine-scan mutant clone of CD33 transiently transfected into HEK293-T cells
Description: as §1, §2

human CD33 S351A = molecular target: T7, human CD33 S351A (human, UniProt P20138 18-364); assay: as above
T7 construct: Alanine-scan mutant clone of CD33 transiently transfected into HEK293-T cells
Description: as §1, §2

human CD33 K352A = molecular target: T8, human CD33 K352A (human, UniProt P20138 18-364); assay: as above
T8 construct: Alanine-scan mutant clone of CD33 transiently transfected into HEK293-T cells
Description: as §1, §2

human CD33 D353A = molecular target: T9, human CD33 D353A (human, UniProt P20138 18-364); assay: as above
T9 construct: Alanine-scan mutant clone of CD33 transiently transfected into HEK293-T cells
Description: as §1, §2

human CD33 T354A = molecular target: T10, human CD33 T354A (human, UniProt P20138 18-364); assay: as above
T10 construct: Alanine-scan mutant clone of CD33 transiently transfected into HEK293-T cells
Description: as §1, §2

human CD33 S355A = molecular target: T11, human CD33 S355A (human, UniProt P20138 18-364); assay: as above
T11 construct: Alanine-scan mutant clone of CD33 transiently transfected into HEK293-T cells
Description: as §1, §2

human CD33 T356A = molecular target: T12, human CD33 T356A (human, UniProt P20138 18-364); assay: as above
T12 construct: Alanine-scan mutant clone of CD33 transiently transfected into HEK293-T cells
Description: as §1, §2

human CD33 E357A = molecular target: T13, human CD33 E357A (human, UniProt P20138 18-364); assay: as above
T13 construct: Alanine-scan mutant clone of CD33 transiently transfected into HEK293-T cells
Description: as §1, §2

human CD33 Y358A = molecular target: T14, human CD33 Y358A (human, UniProt P20138 18-364); assay: as above
T14 construct: Alanine-scan mutant clone of CD33 transiently transfected into HEK293-T cells
Description: as §1, §2

human CD33 S359A = molecular target: T15, human CD33 S359A (human, UniProt P20138 18-364); assay: as above
T15 construct: Alanine-scan mutant clone of CD33 transiently transfected into HEK293-T cells
Description: as §1, §2

human CD33 E360A = molecular target: T16, human CD33 E360A (human, UniProt P20138 18-364); assay: as above
T16 construct: Alanine-scan mutant clone of CD33 transiently transfected into HEK293-T cells
Description: as §1, §2

human CD33 V361A = molecular target: T17, human CD33 V361A (human, UniProt P20138 18-364); assay: as above
T17 construct: Alanine-scan mutant clone of CD33 transiently transfected into HEK293-T cells
Description: as §1, §2

human CD33 R362A = molecular target: T18, human CD33 R362A (human, UniProt P20138 18-364); assay: as above
T18 construct: Alanine-scan mutant clone of CD33 transiently transfected into HEK293-T cells
Description: as §1, §2

human CD33 T363A = molecular target: T19, human CD33 T363A (human, UniProt P20138 18-364); assay: as above
T19 construct: Alanine-scan mutant clone of CD33 transiently transfected into HEK293-T cells
Description: as §1, §2

human CD33 Q364A = molecular target: T20, human CD33 Q364A (human, UniProt P20138 18-363); assay: as above
T20 construct: Alanine-scan mutant clone of CD33 transiently transfected into HEK293-T cells
T20 sequence (P20138 18-364 Q364A limits assumed): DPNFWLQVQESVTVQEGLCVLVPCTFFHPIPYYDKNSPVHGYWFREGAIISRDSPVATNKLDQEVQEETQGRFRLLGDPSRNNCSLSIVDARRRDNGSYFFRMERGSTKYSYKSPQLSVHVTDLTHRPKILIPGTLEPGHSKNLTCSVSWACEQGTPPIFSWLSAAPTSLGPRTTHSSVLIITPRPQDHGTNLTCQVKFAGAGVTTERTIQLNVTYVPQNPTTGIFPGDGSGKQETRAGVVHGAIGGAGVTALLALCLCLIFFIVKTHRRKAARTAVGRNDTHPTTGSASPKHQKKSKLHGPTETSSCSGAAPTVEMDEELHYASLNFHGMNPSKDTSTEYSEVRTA
Description: as §1, §2

T13 sequence (P20138 18-364 E357A limits assumed): as the sequence (P20138 18-364 Q364A limits assumed) above, with E340A, A347Q counted along it
T18 sequence (P20138 18-364 R362A limits assumed): as the sequence (P20138 18-364 Q364A limits assumed) above, with R345A, A347Q counted along it
T17 sequence (P20138 18-364 V361A limits assumed): as the sequence (P20138 18-364 Q364A limits assumed) above, with V344A, A347Q counted along it
T16 sequence (P20138 18-364 E360A limits assumed): as the sequence (P20138 18-364 Q364A limits assumed) above, with E343A, A347Q counted along it
T10 sequence (P20138 18-364 T354A limits assumed): as the sequence (P20138 18-364 Q364A limits assumed) above, with T337A, A347Q counted along it
T7 sequence (P20138 18-364 S351A limits assumed): as the sequence (P20138 18-364 Q364A limits assumed) above, with S334A, A347Q counted along it
T2 sequence (P20138 18-364 H346A limits assumed): as the sequence (P20138 18-364 Q364A limits assumed) above, with H329A, A347Q counted along it
T9 sequence (P20138 18-364 D353A limits assumed): as the sequence (P20138 18-364 Q364A limits assumed) above, with D336A, A347Q counted along it
T5 sequence (P20138 18-364 N349A limits assumed): as the sequence (P20138 18-364 Q364A limits assumed) above, with N332A, A347Q counted along it
T8 sequence (P20138 18-364 K352A limits assumed): as the sequence (P20138 18-364 Q364A limits assumed) above, with K335A, A347Q counted along it
T12 sequence (P20138 18-364 T356A limits assumed): as the sequence (P20138 18-364 Q364A limits assumed) above, with T339A, A347Q counted along it
T14 sequence (P20138 18-364 Y358A limits assumed): as the sequence (P20138 18-364 Q364A limits assumed) above, with Y341A, A347Q counted along it
T15 sequence (P20138 18-364 S359A limits assumed): as the sequence (P20138 18-364 Q364A limits assumed) above, with S342A, A347Q counted along it
T6 sequence (P20138 18-364 P350A limits assumed): as the sequence (P20138 18-364 Q364A limits assumed) above, with P333A, A347Q counted along it
T3 sequence (P20138 18-364 G347A limits assumed): as the sequence (P20138 18-364 Q364A limits assumed) above, with G330A, A347Q counted along it
T19 sequence (P20138 18-364 T363A limits assumed): as the sequence (P20138 18-364 Q364A limits assumed) above, with T346A, A347Q counted along it
T11 sequence (P20138 18-364 S355A limits assumed): as the sequence (P20138 18-364 Q364A limits assumed) above, with S338A, A347Q counted along it
T1 sequence (P20138 18-364 limits assumed): as the sequence (P20138 18-364 Q364A limits assumed) above, with A347Q counted along it
T4 sequence (P20138 18-364 M348A limits assumed): as the sequence (P20138 18-364 Q364A limits assumed) above, with M331A, A347Q counted along it

Binder	Signal:Background (human wild-type CD33)	Mean % WT Binding (human CD33 H346A)	Mean % WT Binding (human CD33 G347A)	Mean % WT Binding (human CD33 M348A)	Mean % WT Binding (human CD33 N349A)	Mean % WT Binding (human CD33 P350A)	Mean % WT Binding (human CD33 S351A)	Mean % WT Binding (human CD33 K352A)	Mean % WT Binding (human CD33 D353A)	Mean % WT Binding (human CD33 T354A)	Mean % WT Binding (human CD33 S355A)	Mean % WT Binding (human CD33 T356A)	Mean % WT Binding (human CD33 E357A)	Mean % WT Binding (human CD33 Y358A)	Mean % WT Binding (human CD33 S359A)	Mean % WT Binding (human CD33 E360A)	Mean % WT Binding (human CD33 V361A)	Mean % WT Binding (human CD33 R362A)	Mean % WT Binding (human CD33 T363A)	Mean % WT Binding (human CD33 Q364A)
B1	33 signal:background ratio	–	–	–	–	–	–	–	–	–	–	–	–	–	–	–	–	–	–	–
B2	17 signal:background ratio	–	–	–	–	–	–	–	–	–	–	–	–	–	–	–	–	–	–	–
B3	–	114 % WT binding	104 % WT binding	92.3 % WT binding	84.9 % WT binding	93.8 % WT binding	88.9 % WT binding	112 % WT binding	74.6 % WT binding	84.7 % WT binding	126 % WT binding	89.3 % WT binding	75.3 % WT binding	97.9 % WT binding	87.2 % WT binding	107 % WT binding	84.5 % WT binding	101 % WT binding	90.1 % WT binding	107 % WT binding
B4	–	104 % WT binding	95.2 % WT binding	101 % WT binding	91 % WT binding	108 % WT binding	112 % WT binding	94.1 % WT binding	92.1 % WT binding	99.3 % WT binding	98.9 % WT binding	99.5 % WT binding	91.2 % WT binding	92 % WT binding	82.5 % WT binding	93.5 % WT binding	76 % WT binding	107 % WT binding	105 % WT binding	94.4 % WT binding
